Reference: patent US20210285024A1 (CENTRE NATIONAL DE LA RECHERCHE SCIENTIFIQUE CNRS, published 2021)

Target: T1, recombinant human Vasohibin-2 (VASH2) (Homo sapiens, UniProt Q86V25 1-355, limits assumed)
T1 construct: Produced in E. coli (pET-28a(+)/pGEX) and purified by IMAC and ion exchange
Assay: recombinant complex purified and used as detyrosinase; no direct binding assay described

T1 sequence (Q86V25 whole entry): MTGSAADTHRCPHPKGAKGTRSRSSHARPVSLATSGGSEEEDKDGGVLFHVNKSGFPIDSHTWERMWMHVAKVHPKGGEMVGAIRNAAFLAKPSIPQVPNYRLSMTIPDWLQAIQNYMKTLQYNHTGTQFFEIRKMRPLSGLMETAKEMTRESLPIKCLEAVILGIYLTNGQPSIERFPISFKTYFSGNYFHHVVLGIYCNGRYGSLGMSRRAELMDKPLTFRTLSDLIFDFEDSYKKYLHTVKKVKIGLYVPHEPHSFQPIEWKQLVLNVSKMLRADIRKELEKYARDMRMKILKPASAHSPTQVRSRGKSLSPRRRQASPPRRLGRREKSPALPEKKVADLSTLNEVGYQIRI

B1: Small vasohibin-binding protein (SVBP) (other)
chain: MDPPARKEKTKVKESVSRVEKAKQKSAQQELKQRQRAEIYALNRVMTELEQQQFDEFCKQMQPPGE
notes: Coexpressed with VASH1 or VASH2
  binding result: binds
